Drawing on patent US20040087537A1, this text covers MFI for 1 substance.

Experiment [1] concerns the target low affinity human Nerve Growth Factor receptor truncated in its intracytoplasmic domain (delta-LNGFR), product of the HN vector (human). The experiment is described as follows: FACS on CEMss HN cells, control labeling.
The target in experiment [2] is delta-LNGFR/F12Nef fusion protein, product of the NF vector (human LNGFR (NH2 moiety) fused to HIV-1 F12Nef (COOH moiety)). In words: FACS on CEMss NF cells, control labeling.

Sequence of low affinity human Nerve Growth Factor receptor truncated in its intracytoplasmic domain (delta-LNGFR), product of the HN vector (human) (chain, as listed by the source mutant limits assumed): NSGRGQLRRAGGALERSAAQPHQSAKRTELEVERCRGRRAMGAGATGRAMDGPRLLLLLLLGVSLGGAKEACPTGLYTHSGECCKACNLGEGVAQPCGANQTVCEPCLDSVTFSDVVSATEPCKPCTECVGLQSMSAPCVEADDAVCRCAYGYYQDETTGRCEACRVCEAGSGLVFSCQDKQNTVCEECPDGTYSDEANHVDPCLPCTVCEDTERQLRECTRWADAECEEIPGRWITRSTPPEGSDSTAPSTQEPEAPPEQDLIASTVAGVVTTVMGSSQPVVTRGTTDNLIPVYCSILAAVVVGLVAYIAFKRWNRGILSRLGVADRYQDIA

For “species and isotype matched IgG (antibody)”, the MFI in experiment [1] and in experiment [2] was 1 to 1.5 in each case.
